Results taken from the Human Domainome abundance scans (Beltran et al. 2025).
± gives the uncertainty stated by the source.

B1: Gamma-crystallin S, residues 96 to 176; numbered along this chain, P22914 (parent)
chain: IQIFEKGDFSGQMYETTEDCPSIMEQFHMREIHSCKVLEGVWIFYELPNYRGRQYLLDKKEYRKPIDWGAASPAVQSFRRI
B2: Homeobox protein cut-like 2, residues 895 to 963; numbered along this chain, O14529 (parent)
chain: EVDTLELTRQVKEKLAKNGICQRIFGEKVLGLSQGSVSDMLSRPKPWSKLTQKGREPFIRMQLWLSDQL

Variants of: B1
Assay: abundance fitness (aPCA) (normalised: wild type 0, dead -1); higher = more abundant; growth selection in yeast, the domain comes from the species named
Conditions: Homo sapiens

| Variant | abundance fitness |
| --- | --- |
| A71D | -0.308 ± 0.49 |
| A71E | 0.028 ± 0.21 |
| A71G | 0.01 ± 0.14 |
| A71H | 0.052 ± 0.33 |
| A71K | 0.144 ± 0.32 |
| A71L | -0.223 ± 0.17 |
| A71M | 0.022 ± 0.13 |
| A71P | 0.128 ± 0.43 |
| A71Q | -0.187 ± 0.3 |
| A71R | 0.007 ± 0.087 |
| A71S | -0.125 ± 0.12 |
| A71W | 0.018 ± 0.092 |
| S72A | -0.016 ± 0.11 |
| S72C | -0.107 ± 0.3 |
| S72D | -0.109 ± 0.32 |
| S72E | 0.125 ± 0.35 |
| S72F | -0.066 ± 0.15 |
| S72L | 0.002 ± 0.14 |
| S72M | -0.149 ± 0.19 |
| S72N | -0.204 ± 0.25 |
| S72P | 0.069 ± 0.16 |
| S72Q | 0.086 ± 0.25 |

| Variant | abundance fitness |
| --- | --- |
| S72R | -0.154 ± 0.14 |
| S72T | -0.1 ± 0.33 |
| S72W | 0.007 ± 0.15 |
| S72Y | 0.173 ± 0.21 |
| P73D | -0.23 ± 0.24 |
| P73E | -0.215 ± 0.24 |
| P73F | 0.27 ± 0.31 |
| P73G | -0.309 ± 0.16 |
| P73H | 0.006 ± 0.31 |
| P73L | 0.338 ± 0.39 |
| P73R | -0.006 ± 0.11 |
| P73T | -0.082 ± 0.39 |
| P73W | 0.089 ± 0.13 |
| A74C | 0.203 ± 0.16 |
| A74E | -0.139 ± 0.29 |
| A74G | 0.046 ± 0.12 |
| A74L | 0.113 ± 0.12 |
| A74M | -0.011 ± 0.19 |
| A74Q | 0.034 ± 0.17 |
| A74R | 0.118 ± 0.24 |
| A74S | -0.111 ± 0.17 |
| A74T | -0.159 ± 0.16 |

| Variant | abundance fitness |
| --- | --- |
| A74V | 0.086 ± 0.2 |
| V75A | -0.021 ± 0.16 |
| V75D | -0.724 ± 0.28 |
| V75E | -0.821 ± 0.22 |
| V75F | 0.146 ± 0.21 |
| V75G | 0.052 ± 0.16 |
| V75L | -0.046 ± 0.12 |
| V75R | -0.665 ± 0.23 |
| V75T | -0.211 ± 0.15 |
| V75W | -0.105 ± 0.16 |
| Q76E | -0.145 ± 0.29 |
| Q76G | -0.066 ± 0.34 |
| Q76L | -0.129 ± 0.27 |
| Q76W | -0.441 ± 0.39 |
| S77A | -0.003 ± 0.18 |
| S77C | -0.327 ± 0.44 |
| S77G | -0.35 ± 0.13 |
| S77L | -0.932 ± 0.48 |
| S77P | -0.457 ± 0.23 |
| S77T | -0.714 ± 0.37 |
| F78A | -0.136 ± 0.17 |
| F78H | -0.229 ± 0.37 |

| Variant | abundance fitness |
| --- | --- |
| F78I | -0.228 ± 0.33 |
| F78K | -0.771 ± 0.38 |
| F78L | 0.059 ± 0.3 |
| F78P | -0.869 ± 0.43 |
| F78R | -1.11 ± 0.38 |
| F78S | -0.37 ± 0.21 |
| F78V | -0.039 ± 0.16 |
| F78Y | -0.023 ± 0.24 |
| R79A | 0.147 ± 0.37 |
| R79E | -0.191 ± 0.37 |
| R79G | -0.413 ± 0.14 |
| R79I | -0.294 ± 0.24 |
| R79K | -0.358 ± 0.33 |
| R79L | -0.406 ± 0.16 |
| R79M | -0.346 ± 0.2 |
| R79Q | -0.058 ± 0.33 |
| R79S | -0.036 ± 0.06 |
| R79T | 0.021 ± 0.21 |
| R79V | -0.596 ± 0.26 |
| R79W | -0.419 ± 0.33 |
| R80A | -0.381 ± 0.27 |
| R80C | 0.059 ± 0.36 |

| Variant | abundance fitness |
| --- | --- |
| R80E | -0.253 ± 0.28 |
| R80G | 0.028 ± 0.13 |
| R80H | -0.573 ± 0.33 |
| R80L | 0.02 ± 0.17 |
| R80Q | -0.491 ± 0.24 |
| R80S | -0.023 ± 0.12 |
| R80V | 0.062 ± 0.14 |
| R80Y | -0.919 ± 0.49 |
| I81C | 0.106 ± 0.16 |
| I81D | 0.114 ± 0.27 |
| I81E | 0.026 ± 0.14 |
| I81K | -0.186 ± 0.24 |
| I81L | -0.065 ± 0.29 |
| I81M | -0.31 ± 0.23 |
| I81N | 0.165 ± 0.49 |
| I81Q | 0.045 ± 0.21 |
| I81R | -0.074 ± 0.14 |
| I81S | -0.043 ± 0.38 |

Variants of: B2
Assay: as above
Conditions: Homo sapiens

| Variant | abundance fitness |
| --- | --- |
| I20N | -0.453 ± 0.077 |
| L32H | -0.231 ± 0.063 |
| L30I | -0.301 ± 0.049 |
| L5R | -0.039 ± 0.031 |
| S48N | -0.055 ± 0.051 |
| D3M | -0.163 ± 0.027 |
| K53R | -0.09 ± 0.028 |
| R55D | -0.954 ± 0.094 |
| E56A | -0.08 ± 0.041 |
| E27A | -0.063 ± 0.035 |
| I20M | -0.023 ± 0.037 |
| Q22E | -0.011 ± 0.061 |
| W64A | -1.17 ± 0.089 |
| E56Q | -0.06 ± 0.05 |
| L7P | -0.103 ± 0.036 |
| S33A | -0.042 ± 0.031 |
| V29E | -0.535 ± 0.055 |
| K14E | -0.073 ± 0.071 |
| R43Q | -0.066 ± 0.044 |
| L50I | -0.437 ± 0.07 |
| S33F | -0.009 ± 0.047 |

| Variant | abundance fitness |
| --- | --- |
| E1W | -0.239 ± 0.088 |
| Q34K | 0.069 ± 0.045 |
| S42E | 0.059 ± 0.095 |
| I59C | -0.278 ± 0.13 |
| V29N | -0.551 ± 0.055 |
| V37F | 0.01 ± 0.042 |
| P57T | 0.017 ± 0.033 |
| L65Y | -0.56 ± 0.053 |
| L7W | -0.215 ± 0.031 |
| S48P | -0.229 ± 0.034 |
| P44Q | -0.135 ± 0.044 |
| G54D | 0.201 ± 0.24 |
| T4S | -0.244 ± 0.034 |
| N18G | -0.098 ± 0.058 |
| L69A | -0.164 ± 0.07 |
| W47K | -1.28 ± 0.16 |
| P44E | -0.665 ± 0.075 |
| P44G | -0.261 ± 0.058 |
| F58V | -0.662 ± 0.049 |
| E13D | 0.117 ± 0.092 |
| Q34P | 0.053 ± 0.029 |

| Variant | abundance fitness |
| --- | --- |
| L65W | -0.44 ± 0.12 |
| E1C | 0.037 ± 0.17 |
| L15V | -0.154 ± 0.027 |
| V37W | -0.061 ± 0.038 |
| E6D | 0.096 ± 0.055 |
| V29G | -0.173 ± 0.039 |
| Q52Y | -0.073 ± 0.15 |
| G35H | -0.043 ± 0.04 |
| P44R | -0.03 ± 0.042 |
| S66G | 0.048 ± 0.073 |
| T51G | -0.145 ± 0.14 |
| K12G | -0.516 ± 0.037 |
| L7D | -0.074 ± 0.076 |
| Q10E | -0.214 ± 0.095 |
| W64D | -1.06 ± 0.2 |
| S33Q | -0.027 ± 0.049 |
| K12P | -0.244 ± 0.06 |
| G26H | -0.525 ± 0.12 |
| G26R | -0.295 ± 0.042 |
